Results from publication PMC8607333, “Real-time kinetic studies of Mycobacterium tuberculosis LexA–DNA interaction” (Bioscience Reports, 2021).

T1: LexA WT (Mycobacterium tuberculosis, UniProt P9WHR7 1-236)
T1 sequence: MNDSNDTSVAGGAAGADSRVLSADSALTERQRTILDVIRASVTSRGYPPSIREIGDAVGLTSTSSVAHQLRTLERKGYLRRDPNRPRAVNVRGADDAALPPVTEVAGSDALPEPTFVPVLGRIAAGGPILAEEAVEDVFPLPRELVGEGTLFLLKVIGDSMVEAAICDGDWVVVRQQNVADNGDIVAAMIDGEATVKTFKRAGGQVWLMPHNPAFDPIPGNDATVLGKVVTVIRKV

T2: LexAΔ24aa (Mycobacterium tuberculosis, UniProt P9WHR7 25-236, del1-24)
T2 sequence: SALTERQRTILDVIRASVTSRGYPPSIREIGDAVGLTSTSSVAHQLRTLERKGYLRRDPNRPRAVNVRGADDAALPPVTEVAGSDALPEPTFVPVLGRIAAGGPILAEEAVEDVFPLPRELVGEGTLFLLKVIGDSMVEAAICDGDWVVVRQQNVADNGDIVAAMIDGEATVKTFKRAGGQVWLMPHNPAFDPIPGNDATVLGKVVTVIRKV

T3: LexAΔ18aa (Mycobacterium tuberculosis, UniProt P9WHR7 1-236, del94-111)
T3 sequence: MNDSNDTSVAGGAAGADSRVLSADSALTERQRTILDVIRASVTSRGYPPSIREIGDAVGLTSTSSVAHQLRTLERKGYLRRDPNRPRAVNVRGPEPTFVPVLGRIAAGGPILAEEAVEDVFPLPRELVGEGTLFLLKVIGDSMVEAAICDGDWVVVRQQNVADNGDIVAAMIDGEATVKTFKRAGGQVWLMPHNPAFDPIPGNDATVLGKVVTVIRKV

B1: recA_44mer SOS box, biotinylated (dsDNA)
DNA 1: GTGTCACACTTGAATCGAACAGGTGTTCGGCTACTGTGGTGATC
DNA 2: GATCACCACAGTAGCCGAACACCTGTTCGATTCAAGTGTGACAC
B2: dnaE2_44mer SOS box, biotinylated (dsDNA)
DNA 1: ACAACTGCGCTGTATCGAACAATTGTTCGATATACTGTGGAATG
DNA 2: CATTCCACAGTATATCGAACAATTGTTCGATACAGCGCAGTTGT
B3: rv3074_44mer SOS box, biotinylated (dsDNA)
DNA 1: GCAGGCTGCTATTCTCGAACACATGTTCGAGACATTGACCGCGA
DNA 2: TCGCGGTCAATGTCTCGAACATGTGTTCGAGAATAGCAGCCTGC
B4: lexA_44mer SOS box, biotinylated (dsDNA)
DNA 1: CCGGAACACGCCTGTCGAACACATGTTTGATTCTTGGTGCGAAT
DNA 2: ATTCGCACCAAGAATCAAACATGTGTTCGACAGGCGTGTTCCGG
B5: dnaE2 44mer SOS box, 32P end-labeled (dsDNA)
DNA 1: B2 DNA 1
DNA 2: B2 DNA 2

Target: T1, LexA WT
Assay: BLI; pH 7.5; BLI: 10 mM HEPES pH 7.5, 50 mM NaCl, 25 C (pH 4 buffer not stated), 1:1 global fit; […]
Details: protein: recombinant; tags: N-term 6xHis (pET28a); chain copies: 2; label: 5' biotin on strand 1; blunt

Row | Binder | Kd [nM]
1 | B1 | 3.63 ± 0.02
2 | B2 | 2.16 ± 0.01
3 | B3 | 3.86 ± 0.03
4 | B4 | 0.98 ± 0.01

Target: T2, LexAΔ24aa
Assay: BLI; pH 7.5; BLI: 10 mM HEPES pH 7.5, 50 mM NaCl, 25 C (pH 4 buffer not stated), 1:1 global fit; EMSA: 10 mM HEPES pH 7.5, 50 mM NaCl, 30 min on ice, 3.5 nM DNA
Details: protein: recombinant; tags: N-term 6xHis (pET28a); chain copies: 2; label: 5' biotin on strand 1; blunt

Row | Binder | Kd [nM]
5 | B1 | 1.67 ± 0.02
6 | B2 | 4.94 ± 0.03
7 | B3 | 2.75 ± 0.04
8 | B4 | 2.36 ± 0.02

Target: T3, LexAΔ18aa
Assay: as above
Details: protein: recombinant; tags: 6xHis; chain copies: 2; label: 5' biotin on strand 1; blunt

Row | Binder | Kd [nM]
9 | B1 | 32.55 ± 0.22
10 | B3 | 43.5 ± 0.24
11 | B4 | 34.53 ± 0.25

Target: T3, LexAΔ18aa
Assay: EMSA; 128 nM protein; BLI: 10 mM HEPES pH 7.5, 50 mM NaCl, 25 C (pH 4 buffer not stated), 1:1 global fit; EMSA: 10 mM HEPES pH 7.5, 50 mM NaCl, 30 min on ice, 3.5 nM DNA
Details: protein: recombinant; tags: 6xHis; chain copies: 2; label: 32P end label, no biotin; blunt

Row | Binder | binding result
12 | B5 | binds
